According to patent US20240392271, “ENGINEERED CASX REPRESSOR SYSTEMS” (Scribe Therapeutics Inc., published 2024):

Key:
Test in all cases: cell_activity; PAM TTC; day 50
[1] = biological target: T1, ELXR3-ZNF10 (#3.B) (synthetic construct); conditions: tags: DNMT3A CD, DNMT3L ID, ZNF10 KRAB fusion, NLS
T1 chain: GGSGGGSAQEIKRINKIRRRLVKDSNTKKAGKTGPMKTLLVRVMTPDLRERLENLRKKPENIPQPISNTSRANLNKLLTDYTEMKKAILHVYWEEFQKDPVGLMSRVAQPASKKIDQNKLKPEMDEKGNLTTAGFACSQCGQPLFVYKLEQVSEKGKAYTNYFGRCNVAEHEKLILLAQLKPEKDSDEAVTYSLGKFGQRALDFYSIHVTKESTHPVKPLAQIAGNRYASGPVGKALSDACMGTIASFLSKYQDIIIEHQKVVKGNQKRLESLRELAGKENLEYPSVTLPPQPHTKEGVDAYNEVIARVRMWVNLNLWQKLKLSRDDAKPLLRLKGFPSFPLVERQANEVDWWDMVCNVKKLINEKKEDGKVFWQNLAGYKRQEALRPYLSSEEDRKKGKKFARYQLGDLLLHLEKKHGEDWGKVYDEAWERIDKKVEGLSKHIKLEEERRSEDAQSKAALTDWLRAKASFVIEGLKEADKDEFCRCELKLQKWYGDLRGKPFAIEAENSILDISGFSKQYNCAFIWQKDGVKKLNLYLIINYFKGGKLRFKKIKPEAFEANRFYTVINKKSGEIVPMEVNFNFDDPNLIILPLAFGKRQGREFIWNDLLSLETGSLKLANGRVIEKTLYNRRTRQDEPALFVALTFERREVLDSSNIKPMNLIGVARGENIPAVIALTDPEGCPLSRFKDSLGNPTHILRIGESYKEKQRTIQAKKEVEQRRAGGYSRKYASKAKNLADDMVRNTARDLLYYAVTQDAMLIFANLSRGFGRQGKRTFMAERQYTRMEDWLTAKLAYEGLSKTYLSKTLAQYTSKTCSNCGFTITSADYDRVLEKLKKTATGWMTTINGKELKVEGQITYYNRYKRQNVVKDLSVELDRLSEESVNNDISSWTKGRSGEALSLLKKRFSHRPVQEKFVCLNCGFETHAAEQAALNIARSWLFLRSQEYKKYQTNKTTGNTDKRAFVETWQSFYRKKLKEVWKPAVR

[2] = biological target: T2, ELXR2-ZNF10 (#2.B) (synthetic construct); conditions: tags: DNMT3A CD, DNMT3L ID, ZNF10 KRAB fusion, NLS
T2 chain: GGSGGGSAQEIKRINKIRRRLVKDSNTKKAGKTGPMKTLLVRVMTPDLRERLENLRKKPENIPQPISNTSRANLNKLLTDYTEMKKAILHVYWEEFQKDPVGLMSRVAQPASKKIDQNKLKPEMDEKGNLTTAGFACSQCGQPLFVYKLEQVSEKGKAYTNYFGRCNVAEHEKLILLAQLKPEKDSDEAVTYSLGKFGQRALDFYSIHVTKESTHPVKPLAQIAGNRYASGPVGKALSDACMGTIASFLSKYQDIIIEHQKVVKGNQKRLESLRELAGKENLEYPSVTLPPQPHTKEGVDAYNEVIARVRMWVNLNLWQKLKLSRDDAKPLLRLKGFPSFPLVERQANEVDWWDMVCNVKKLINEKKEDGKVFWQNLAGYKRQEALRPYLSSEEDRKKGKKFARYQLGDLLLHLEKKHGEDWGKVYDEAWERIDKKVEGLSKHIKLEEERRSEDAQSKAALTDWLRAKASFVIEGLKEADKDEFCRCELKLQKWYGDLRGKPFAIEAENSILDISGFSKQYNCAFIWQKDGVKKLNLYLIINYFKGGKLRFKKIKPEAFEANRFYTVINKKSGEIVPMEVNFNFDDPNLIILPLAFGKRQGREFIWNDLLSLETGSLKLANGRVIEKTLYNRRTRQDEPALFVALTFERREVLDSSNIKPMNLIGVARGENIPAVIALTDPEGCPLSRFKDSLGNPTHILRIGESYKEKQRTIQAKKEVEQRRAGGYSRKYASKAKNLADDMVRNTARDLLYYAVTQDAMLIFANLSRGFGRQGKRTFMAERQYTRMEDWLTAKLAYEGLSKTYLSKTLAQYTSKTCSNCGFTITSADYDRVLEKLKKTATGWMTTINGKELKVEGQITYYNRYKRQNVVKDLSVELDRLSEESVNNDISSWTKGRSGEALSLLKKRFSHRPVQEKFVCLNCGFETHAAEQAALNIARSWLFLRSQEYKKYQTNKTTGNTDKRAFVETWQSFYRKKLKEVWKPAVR

[3] = biological target: T3, ELXR1-ZIM3 (#1.A) (synthetic construct); conditions: tags: DNMT3A CD, DNMT3L ID, ZIM3 KRAB fusion, NLS
T3 chain: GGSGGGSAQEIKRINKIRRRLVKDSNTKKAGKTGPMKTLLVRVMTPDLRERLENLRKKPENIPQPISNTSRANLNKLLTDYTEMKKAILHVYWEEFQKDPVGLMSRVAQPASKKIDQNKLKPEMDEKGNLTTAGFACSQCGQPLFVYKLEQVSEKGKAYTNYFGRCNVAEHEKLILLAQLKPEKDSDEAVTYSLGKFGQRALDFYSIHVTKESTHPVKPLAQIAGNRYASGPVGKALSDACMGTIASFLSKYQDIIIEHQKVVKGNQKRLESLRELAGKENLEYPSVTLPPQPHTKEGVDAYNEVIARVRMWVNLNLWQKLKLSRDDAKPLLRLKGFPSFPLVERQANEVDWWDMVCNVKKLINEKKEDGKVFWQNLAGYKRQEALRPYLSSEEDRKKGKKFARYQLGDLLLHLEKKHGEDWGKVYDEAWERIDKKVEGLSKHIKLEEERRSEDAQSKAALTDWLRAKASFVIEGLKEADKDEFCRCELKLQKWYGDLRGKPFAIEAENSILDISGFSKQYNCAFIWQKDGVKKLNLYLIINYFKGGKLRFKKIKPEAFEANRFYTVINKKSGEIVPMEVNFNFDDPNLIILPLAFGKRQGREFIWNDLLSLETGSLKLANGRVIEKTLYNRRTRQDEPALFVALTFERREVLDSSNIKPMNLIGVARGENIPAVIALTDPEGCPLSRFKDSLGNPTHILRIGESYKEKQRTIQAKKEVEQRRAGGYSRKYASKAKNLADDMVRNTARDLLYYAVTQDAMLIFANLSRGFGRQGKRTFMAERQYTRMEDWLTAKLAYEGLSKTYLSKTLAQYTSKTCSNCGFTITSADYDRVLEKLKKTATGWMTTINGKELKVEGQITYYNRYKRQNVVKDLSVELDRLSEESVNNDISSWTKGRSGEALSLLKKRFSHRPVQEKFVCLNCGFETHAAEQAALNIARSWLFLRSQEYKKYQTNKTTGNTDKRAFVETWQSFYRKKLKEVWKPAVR

[4] = biological target: T4, ELXR3-ZIM3 (#3.A) (synthetic construct); conditions: tags: DNMT3A CD, DNMT3L ID, ZIM3 KRAB fusion, NLS
T4 chain: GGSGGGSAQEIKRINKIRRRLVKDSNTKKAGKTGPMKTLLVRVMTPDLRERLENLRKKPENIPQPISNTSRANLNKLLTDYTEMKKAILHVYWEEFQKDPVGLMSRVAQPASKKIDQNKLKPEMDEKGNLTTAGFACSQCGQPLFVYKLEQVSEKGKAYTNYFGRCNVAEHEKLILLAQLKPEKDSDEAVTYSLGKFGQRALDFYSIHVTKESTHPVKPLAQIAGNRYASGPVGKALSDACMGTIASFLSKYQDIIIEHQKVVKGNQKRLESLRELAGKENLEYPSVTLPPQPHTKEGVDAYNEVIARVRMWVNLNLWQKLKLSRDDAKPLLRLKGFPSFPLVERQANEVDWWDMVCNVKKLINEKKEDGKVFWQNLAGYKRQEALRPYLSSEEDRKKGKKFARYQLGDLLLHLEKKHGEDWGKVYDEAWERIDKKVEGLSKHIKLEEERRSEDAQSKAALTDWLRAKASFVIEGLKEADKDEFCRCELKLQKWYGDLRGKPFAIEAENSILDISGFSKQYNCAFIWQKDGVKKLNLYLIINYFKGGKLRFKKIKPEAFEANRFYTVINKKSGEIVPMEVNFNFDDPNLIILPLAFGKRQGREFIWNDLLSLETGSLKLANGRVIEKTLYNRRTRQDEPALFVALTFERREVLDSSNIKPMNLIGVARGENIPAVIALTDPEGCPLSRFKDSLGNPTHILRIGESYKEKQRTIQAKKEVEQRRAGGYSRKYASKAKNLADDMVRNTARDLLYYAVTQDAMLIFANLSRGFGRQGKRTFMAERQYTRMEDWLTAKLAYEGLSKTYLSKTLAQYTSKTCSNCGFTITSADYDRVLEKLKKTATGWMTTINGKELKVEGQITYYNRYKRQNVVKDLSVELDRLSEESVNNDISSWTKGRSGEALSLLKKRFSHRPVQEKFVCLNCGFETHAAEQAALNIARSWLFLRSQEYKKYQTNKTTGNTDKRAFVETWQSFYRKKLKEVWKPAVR

[5] = biological target: T5, ELXR1-ZNF10 (#1.B) (synthetic construct); conditions: tags: DNMT3A CD, DNMT3L ID, ZNF10 KRAB fusion, NLS
T5 chain: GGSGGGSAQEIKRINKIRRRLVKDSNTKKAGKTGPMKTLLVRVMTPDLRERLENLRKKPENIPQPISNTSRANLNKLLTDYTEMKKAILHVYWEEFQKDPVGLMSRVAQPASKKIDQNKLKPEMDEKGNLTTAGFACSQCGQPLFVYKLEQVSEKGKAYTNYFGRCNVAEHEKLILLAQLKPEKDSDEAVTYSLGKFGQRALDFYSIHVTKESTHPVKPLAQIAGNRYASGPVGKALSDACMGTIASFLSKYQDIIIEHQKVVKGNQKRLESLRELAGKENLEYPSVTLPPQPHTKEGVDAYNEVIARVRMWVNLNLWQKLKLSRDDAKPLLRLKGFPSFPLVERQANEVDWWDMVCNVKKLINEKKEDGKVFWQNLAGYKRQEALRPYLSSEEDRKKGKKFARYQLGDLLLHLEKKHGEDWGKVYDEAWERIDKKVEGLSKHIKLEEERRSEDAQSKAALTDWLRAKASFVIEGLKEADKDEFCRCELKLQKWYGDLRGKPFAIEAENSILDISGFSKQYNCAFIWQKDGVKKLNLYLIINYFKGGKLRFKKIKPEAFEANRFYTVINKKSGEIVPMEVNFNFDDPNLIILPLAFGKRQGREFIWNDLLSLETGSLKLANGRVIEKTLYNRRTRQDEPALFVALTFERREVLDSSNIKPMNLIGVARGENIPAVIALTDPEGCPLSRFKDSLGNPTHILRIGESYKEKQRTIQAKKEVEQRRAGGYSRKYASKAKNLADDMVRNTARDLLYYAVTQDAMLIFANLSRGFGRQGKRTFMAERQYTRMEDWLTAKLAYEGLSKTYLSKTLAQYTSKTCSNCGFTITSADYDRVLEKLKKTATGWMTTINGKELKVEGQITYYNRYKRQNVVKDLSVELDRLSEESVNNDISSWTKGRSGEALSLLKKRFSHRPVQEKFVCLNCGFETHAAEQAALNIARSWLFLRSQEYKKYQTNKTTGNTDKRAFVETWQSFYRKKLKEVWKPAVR

B1: gRNA scaffold 174 + spacer 7.37 ; B2M target 7.37 (ssRNA ; dsDNA)
RNA: ACUGGCGCUUUUAUCUGAUUACUUUGAGAGCCAUCACCAGCGACUAUGUCGUAGUGGGUAAAGCUCCCUCUUCGGAGGGAGCAUCAAAGGGCCGAGAUGUCUCGCUCCG
DNA 1: GGCCGAGATGTCTCGCTCCG
DNA 2: CGGAGCGAGACATCTCGGCC
- activity [1]: 17.1 % HLA-negative cells
- activity [2]: 36.9 % HLA-negative cells
- activity [3]: 73.7 % HLA-negative cells
- activity [4]: 17.5 % HLA-negative cells
- activity [5]: 70 % HLA-negative cells
